{"source": "patent US20140205611A1", "experiment_in_all_cases": "cell-based or functional assay", "key": {"[1]": {"molecular_target": "recombinant hGM-CSF derived from yeast (Leukine, Berlex) (human) (UniProt P04141)", "sequence (P04141 other isoform, or with tags, fused parts or gaps limits assumed, form in doubt)": "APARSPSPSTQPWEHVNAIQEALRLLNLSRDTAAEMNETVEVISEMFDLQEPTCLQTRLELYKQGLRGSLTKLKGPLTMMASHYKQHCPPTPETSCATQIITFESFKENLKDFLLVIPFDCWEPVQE"}, "[2]": {"molecular_target": "recombinant hGM-CSF from E. coli (Peprotech) (human) (UniProt P04141)", "sequence (P04141 18-144 limits assumed)": "as the sequence (P04141 other isoform, or with tags, fused parts or gaps limits assumed, form in doubt) above, with L23R counted along it"}, "[3]": {"molecular_target": "recombinant hGM-CSF expressed in E. coli (Fa. Biomol #2514) (human) (UniProt P04141)", "sequence (P04141 18-144 limits assumed)": "as the sequence (P04141 other isoform, or with tags, fused parts or gaps limits assumed, form in doubt) above, with L23R counted along it"}}, "data": [{"substance": "human anti-human cytomegalovirus monoclonal antibody (hIgG)", "values": [{"measurement": "TF-1 cell proliferation with 0.5 ng/mL rhGM-CSF (WST-1 assay)", "setting": "[1]", "result": "< 2", "unit": "µg/mL"}, {"measurement": "TF-1 cell proliferation with 0.5 ng/mL rhGM-CSF (WST-1 assay)", "setting": "[2]", "result": "< 2", "unit": "µg/mL"}]}, {"substance": "rat-anti-human-GM-CSF IgG2a BVD2-21C11 (Fa. BD, #554503) (antibody)", "values": [{"measurement": "IC50 in TF-1 assay, hGM-CSF (E. coli) at 1.0 ng/ml final concentration", "setting": "[3]", "result": 8.26, "unit": "nM"}]}]}
